Reference: patent publication US20230220439A1 (HUBEL UNIVERSITY, published 2023)

Columns and labels:
Test in all cases: Native-PAGE of mixed CL and Im proteins, 30 min at room temperature
Im8 protein = molecular target: T1, Im8 protein (Escherichia coli, UniProt P09881 1-85)
T1 construct: Expressed from pET23a in E. coli BL21(DE3) and purified on nickel beads; a tag is not described
T1 sequence: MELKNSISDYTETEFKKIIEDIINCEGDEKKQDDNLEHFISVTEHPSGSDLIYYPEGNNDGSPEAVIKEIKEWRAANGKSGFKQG

Im7 protein = molecular target: T2, Im7 protein (Escherichia coli, UniProt Q03708 1-87)
T2 construct: Expressed from pET23a in E. coli BL21(DE3) and purified on nickel beads; a tag is not described
T2 sequence: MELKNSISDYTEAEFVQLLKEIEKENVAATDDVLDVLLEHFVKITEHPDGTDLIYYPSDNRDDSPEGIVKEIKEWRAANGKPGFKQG

Im2 protein = molecular target: T3, Im2 protein (Escherichia coli, UniProt P04482 1-86)
T3 construct: Expressed from pET23a in E. coli BL21(DE3) and purified on nickel beads; a tag is not described; also called immunity 2
T3 sequence: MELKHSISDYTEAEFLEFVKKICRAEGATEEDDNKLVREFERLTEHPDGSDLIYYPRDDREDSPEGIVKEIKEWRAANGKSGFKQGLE

Im9 protein = molecular target: T4, Im9 protein (Escherichia coli, UniProt P13479 1-86)
T4 construct: Expressed from pET23a in E. coli BL21(DE3) and purified on nickel beads; a tag is not described
T4 sequence (P13479 whole entry): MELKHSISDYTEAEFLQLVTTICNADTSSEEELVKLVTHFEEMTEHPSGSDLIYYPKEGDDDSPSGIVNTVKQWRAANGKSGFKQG

B1: CL8 protein (other)
chain: MSKSNEPGKATGEGKPVGDKWLDDAGKDSGAPIPDRIADKLRDKEFENFDDFRETFWEEVSKDPELSKQFNPGNKKRLSQGLAPRARNKDTVGGRRSFELNHQKPIEQDGGVYDMDNLRITTPKRNIDIEG
notes: Expressed from pET23a in E. coli BL21(DE3) and purified on nickel beads; a tag is not described
Does B1 bind (Im8 protein)?
Result: binds

B2: CL7 protein (other)
chain: MSKSNEPGKATGEGKPVNNKWLNNAGKDLGSPVPDRIANKLRDKEFESFDDFRETFWEEVSKDPELSKQFSRNNNDRMKVGKAPKTRTQDVSGKRTSFELNHQKPIEQNGGVYDMDNISVVTPKRNIDIEG
notes: as for B1
Does B2 bind (Im7 protein)?
Result: binds

B3: CL2 protein (other)
chain: MSKSNEPGKATGEGKPVGDKWLDDAGKDSGAPIPDRIADKLRDKEFENFDDFRETFWEEVSKDPDLSKQFKGSNKTNIQKGKAPFARKKDQVGGRERFELNHQKPIEQDGGVYDMNNIRVTTPKRNIDIEG
notes: as for B1
Does B3 bind (Im2 protein)?
Result: binds

B4: CL9 protein (other)
chain: MSKSNEPGKATGEGKPVGDKWLDDAGKDSGAPIPDRIADKLRDKEFESFDDFRETVWEEVSKDPELSKNLNPSNKSSVSKGYSPFTPKNQQVGGRKVYELNHQKPIEQGGEVYDMDNIRVTTPKRNIDIEG
notes: as for B1
Does B4 bind (Im9 protein)?
Result: binds
